The text below walks through data of patent US11162953B2, “Protein binding domains stabilizing functional conformational states of GPCRS and uses thereof” (priority 2010, dated 2021).

“Also recorded” adds a separate entry of the source. Structures can show the parent of a compound that is named as a salt. Where two headings read alike, the source gives them in different places.

Data set [1] has as its target T1, β2AR (Homo sapiens, UniProt P07550). The class given is binding.
In data set [2] the test system is β2AR. Kind of data set: Size exclusion chromatography of nanobody with purified agonist- or inverse agonist-bound β2AR. As to conditions: 20 μM β2AR bound to agonist or inverse agonist, 40 μM nanobody. The data set is classed as binding, human. Here is the method:
The mixture was then analyzed by Size Exclusion Chromatography (SEC), which separates protein on the basis of size. Seven of the nanobodies bound to purified β2AR and migrated as a complex on SEC only in the presence of agonist and not an inverse agonist (an example is shown in FIG. 1, Panel a, FIGS. 3A, 3B, and FIG. 4).
Agonist selective nanobodies were identified by size exclusion chromatography following incubation of 20 μM agonist or inverse agonist-(carazolol-) bound β2AR-365N for one hour at RT in the absence or presence of 40 μM nanobody.
In general terms: Size exclusion chromatography separates by hydrodynamic size, large species first.

For data set [3], the target named is T1, β2AR. The following applies: agonist competition binding, Sf9 membranes.
From the text: The IC50 values used for calculations of Ki values were obtained from means of pIC50 values determined by nonlinear regression analysis using Prism (GraphPad Software, San Diego, Calif.) and the s.e. interval from pIC50±s.e.
Data set [4] addresses T1, β2AR. Kind of data set: Monobromobimane fluorescence of purified mBBr-labeled β2AR. The class given is biochemical. Also on record: made in house. The following applies: 1 μM nanobody, β2AR bound to full agonist isoproterenol. From the text: To investigate the effect of nanobodies on movement of the cytoplasmic domain of TM6 we labeled purified β2AR at C265 with monobromobimane (mBB-β2AR). […] In mBB-β2AR, the addition of agonist together with G protein results in larger fluorescent changes than either agonist or G protein alone. This is compatible with the cooperative interactions observed in agonist competition binding assays (Yao et al. 2009).
Purified β2AR was reacted with 1:1 equivalent of monobromobimane (mBBr, Invitrogen) in 100 mM NaCl, 20 mM HEPES, pH 7.5, 0.1% dodecyl maltoside and incubated overnight on ice in the dark. The fluorophore-labeled receptor was purified right before use by gel filtration on a desalting column equilibrated with the same buffer. […] All experiments were performed at 25° C. […] To determine the effect of nanobodies and ligands, three individual labeled protein samples were incubated with 1 μM nanobody or 10 μM Isoproterenol or both. Emission spectra of the samples were taken after 1 hour incubation.

Setting [5] is: ratio of IC50 with irrelevant Nb to IC50 with 500 nM Nb80, 3H-DHA radioligand.

For the molecule `CC(CCc1ccc(O)cc1)NCCc1ccc(O)c(O)c1` (centres unmarked) [dobutamine, dobutamine hydrochloride], the Potency shift on β2AR [1] (setting [5]) turned out to be 2.3.
`CC(Cc1ccc(O)cc1)NCC(O)c1cc(O)cc(O)c1` (centres unmarked) [fenoterol, fenoterol hydrobromide]: on β2AR [1] (setting [5]), the Potency shift is given as 3.7.
Still for that read-out and setting: as for `CCC(NC(C)C)C(O)c1ccc(O)c2[nH]c(=O)ccc12` (centres unmarked) [procaterol, procaterol hydrochloride], the figure is 2.3; as for `CC(NCCc1ccc(O)cc1)C(O)c1ccc(O)cc1` (centres unmarked) [ritodrine, ritodrine hydrochloride], 2.7.
metaproterenol hemisulfate salt: the Potency shift at β2AR [1] amounted to 2.9.

B1: NB69: β2AR-specific nanobody, SEQ ID NO:26 (protein, listed as Lama glama)
VHH: QVQLQESGGGLVQPGGSLRLSCAASGSIFSINAMGWYRQAPGKQRDLVASITSGGSTNYADSVKGRFTISRDNAKNTVYLQMNSLKPEDTAVYYCNVQGTGPSSWLFNEYDYWGQGTQVTVSS
In the case of B1, in the data set with β2AR [2], the “complex formation with β2AR on SEC” value is given as “elutes at an earlier volume”. Besides, the “enhancement of the affinity of β2AR for the agonist isoproterenol in the presence of nanobody” value (“enhancement of the affinity of β2AR” for short) in the data set with β2AR [3] is on record as “two- to thirty-fold”. In the data set with β2AR [4] (listed as 69), the “nanobody-induced change of mBBr fluorescence” value (shortened to “nanobody-induced change”) is listed as “Comparable results; also recorded: stabilize a more active state of the β2AR”.

B2: NB65: β2AR-specific nanobody, SEQ ID NO:5 (protein, listed as Lama glama)
VHH: QVQLQESGGGLVQAGGSLRLSCAASGSIFSINTMGWYRQAPGKQRELVAAIHSGGSTNYADSVRGRFTISRDNAKNTVYLQMNSLKPEDTAVYYCNVKDYGAVLYEYDYWGQGTQVTVSS
B2: the “complex formation with β2AR on SEC” value in the data set with β2AR [2] was “elutes at an earlier volume”. Also, in the data set with β2AR [3], the “enhancement of the affinity of β2AR” value is reported as “two- to thirty-fold”. Further, the “nanobody-induced change” value with β2AR [4] (listed as 65) is listed as “Comparable results; also recorded: stabilize a more active state of the β2AR”.

B3: NB67: β2AR-specific nanobody, SEQ ID NO:20 (protein, listed as Lama glama)
VHH: QVQLQESGGGLVQAGGSLRLSCAASGTISSFIAMGWYRQSPGKQRELVAGITSGGETNYEDSVKGRFTISRDNAKNTLYLQMNTLKPEDTAVYYCNAQVFADIFNLINYWGQGTQVTVSS
Regarding B3, the “complex formation with β2AR on SEC” value with β2AR [2] is “elutes at an earlier volume”. Besides, in the data set with β2AR [3], the “enhancement of the affinity of β2AR” value is reported as “two- to thirty-fold”. Further, the “nanobody-induced change” value with β2AR [4] (listed as 67) is “Comparable results; also recorded: stabilize a more active state of the β2AR”.

B4: NB72: β2AR-specific nanobody, SEQ ID NO:24; the tested NB72 is assumed to be this one (protein, listed as Lama glama)
VHH: QVQLQESGGGLVQPGGSLRLSCAASGFTFSGYAMNWVRQAPGKGPEWVSAINSGGGSTSYADSVKGRFTISRDNAKNTVYLQMNSLKPEDTAVYYCHARDIYSDFLGQYEYDYWGQGTQVTVSS
In the case of B4, the “complex formation with β2AR on SEC” value in the data set with β2AR [2] is recorded as “elutes at an earlier volume”. Besides, the “enhancement of the affinity of β2AR” value with β2AR [3] is given as “two- to thirty-fold”. In addition, the “nanobody-induced change” value with β2AR [4] (listed as 72) is recorded as “Comparable results; also recorded: stabilize a more active state of the β2AR”.

B5: NB84: β2AR-specific nanobody, SEQ ID NO:29; the tested NB84 is assumed to be this one (protein, listed as Lama glama)
VHH: QVQLQESGGGLVQAGGSLRLSCAASGSIFSINAMGWYRQAPGKQRELVAAITSGGSTTYADSVKGRFTVSRDNAKNTVYLQMIRLKPEDTAVYYCHVRDIYSDFLGQYEYDYWGQGTQVTVSS
Take B5: in the data set on β2AR [2], the “complex formation with β2AR on SEC” value is recorded as “elutes at an earlier volume”. In addition, in the data set with β2AR [3], the “enhancement of the affinity of β2AR” value is “two- to thirty-fold”. Moreover, the “nanobody-induced change” value with β2AR [4] (listed as 84) is “Comparable results; also recorded: stabilize a more active state of the β2AR”.

B6: NB71: β2AR-specific nanobody, SEQ ID NO:25 (protein, listed as Lama glama)
VHH: QVQLQESGGGLVQPGGSLRLSCAASGFAFSSYELRWYRQAPGKQHELVAGITTGGNTYYADSVKGRFTISRDNAKNTVYLQMSNLRPEDTAVYACNANWDLLSDYWGQGTQVTVSS
B6: the “complex formation with β2AR on SEC” value in the data set on β2AR [2] was “elutes at an earlier volume”. Besides, the “enhancement of the affinity of β2AR” value in the data set with β2AR [3] was “two- to thirty-fold”. Besides, the “nanobody-induced change” value with β2AR [4] (listed as 71) is on record as “Comparable results; also recorded: stabilize a more active state of the β2AR”.
